# In patent publication US20120039897A1 (PHILIPPS UNIVERSITAET MARBURG, published 2012):
# Changes are numbered by the printed parent chain.
# B1: recombinant Aβ(21-37) autoantibody 54/62 (antibody, V domains shown)
# VH: EVQLVESGGGVVQPGGSLRLSCAASGFTFSSYWMSWVRQAPGKGLEWVASVKQDGSEKYYVDSVKGRFTISRDNAKNTLYLQMNSLRAEDTAVYYCARDGSSWYRDWFDPWGQGTLVTVS
# VL: DIVLTQSPATLSLSPGERVTITCRASQSVNSYLAWYQQKPGQAPRLLIYGASTRATGIPDRFSGSGSGTDFTLTISRLEPEDFAVYYCQQYGSSQGTFGPGTKVDIKR
# B2: recombinant Aβ(21-37) autoantibody 50/67 (antibody, V domains shown)
# VH: EVQLVESGGGVVQPGGSLRLSCAASGFTFRSYWMHWVRQAPGKGLEWVASVKQDGSEKYYVDSVKGRVTISLDTSKNQFSLKLSSVTAADTAVYYCARDGSSWYRDWFDPWGQGTLVSVS
# VL: B1 VL with V3Q, L4M, V19A, T20A, I21L, T22S, S52A, T53S, D60A
# B3: recombinant Aβ(21-37) autoantibody 55/68 (antibody, V domains shown)
# VH: EVQLVESGGGVVQPGGSLRLSCAASGITFRSYDMSWVRQAPGKGLEWVASVKQDGSEKYYVDSVKGRFTVSRDNAKNTLYLQMNSLRAEDTAVYYCARDAGRWADLAFDIWGQGTLVTVS
# VL: B1 VL with V3Q, L4M, A9G, V19A, T20A, I21L, T22S, N30S, G50A, T53I
# B4: recombinant Aβ(21-37) autoantibody 50/62 (antibody, V domains shown)
# VH: B1 VH
# VL: B1 VL with V3Q, L4M, V19A, T20A, I21L, T22S, S52A, T53S, D60A
# B5: recombinant Aβ(21-37) autoantibody 47/56 (antibody, V domains shown)
# VH: B1 VH with S30R, N74T, A75S, G100A
# VL: B1 VL with D1E
# B6: recombinant Aβ(21-37) autoantibody 54/68 (antibody, V domains shown)
# VH: B3 VH
# VL: B1 VL
# B7: recombinant Aβ(21-37) autoantibody 55/62 (antibody, V domains shown)
# VH: B1 VH
# VL: B1 VL with V3Q, L4M, A9G, V19A, T20A, I21L, T22S, N30S, G50A, T53I
# B8: recombinant Aβ(21-37) autoantibody 50/69 (antibody, V domains shown)
# VH: B1 VH with S30R, S35H, F68V, S71T, R72A, N74R
# VL: B1 VL with V3Q, L4M, V19A, T20A, I21L, T22S, S52A, T53S, D60A
# B9: recombinant Aβ(21-37) autoantibody 50/68 (antibody, V domains shown)
# VH: B3 VH
# VL: B1 VL with V3Q, L4M, V19A, T20A, I21L, T22S, S52A, T53S, D60A
# B10: recombinant Aβ(21-37) autoantibody 55/69 (antibody, V domains shown)
# VH: B1 VH with S30R, S35H, F68V, S71T, R72A, N74R
# VL: B1 VL with V3Q, L4M, A9G, V19A, T20A, I21L, T22S, N30S, G50A, T53I
# B11: recombinant Aβ(21-37) autoantibody 51/62 (antibody, V domains shown)
# VH: B1 VH
# VL: B1 VL with D1E, A25E, S28G, V29I, N30R, S31N
# Target: amyloid β peptide (antigen of the EIA of Table 2)
# Experiment: ELISA (EIA), amyloid β peptide immobilised; legend: (-) indicates no binding
# Method: (§1) All transfectants that expressed immunoglobulin efficiently were tested in an ELISA based on binding to amyloid β peptide. Biosensor data is ranked on a qualitative affinity binding assessment of the antibody to the cys-dimer peptide as described below.
# Aβ(1-40) monomer, Aβ(1-40) oligomer, Aβ(1-40 Cys) oligomer, and control plate using bovine serum albumin (Sigma) or Aprotinin (Sigma) were immobilized at 1 μg/ml in PBS (50 μl per well) on a Nunc Maxisorb 96-well plate overnight at 4° C. Wells were washed once with 350 μl Wash Buffer (1×PBS, 0.05% (v/v) Tween-20 (Sigma)). Wells were then blocked with Blocking Buffer (2% (w/v) Difco Skim milk (BD) in PBS, 50-150 μl per well) for 2 hours at room-temperature and washed once with 350 μl Wash Buffer.
# Chain of amyloid β peptide (antigen of the EIA of Table 2) (peptide, as listed by the source): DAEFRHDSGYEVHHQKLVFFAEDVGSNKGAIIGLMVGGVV
row,Binder,binding result
1,B1,no binding (tested: 100 µg/ml starting concentration)
2,B2,no binding (tested: 100 µg/ml starting concentration)
3,B3,no binding (tested: 100 µg/ml starting concentration)
4,B4,no binding (tested: 100 µg/ml starting concentration)
5,B5,no binding (tested: 100 µg/ml starting concentration)
6,B6,no binding (tested: 100 µg/ml starting concentration)
7,B7,no binding (tested: 100 µg/ml starting concentration)
8,B8,no binding (tested: 100 µg/ml starting concentration)
9,B9,no binding (tested: 100 µg/ml starting concentration)
10,B10,no binding (tested: 100 µg/ml starting concentration)
11,B11,no binding (tested: 100 µg/ml starting concentration)

# Target: T1, Aβ(1-40 Cys) oligomer (Example 12A)
# T1 construct: also called Aβ(1-40 Cys) dimer; cys-dimer peptide
# Experiment: Biacore, antibody captured on anti-human Ig chip, peptide injected
# Method: (§2) An anti-human immunoglobulin biosensor chip was prepared using a human antibody capture kit (Biacore, Sweden) as per manufacturer's instructions at flow rate of 5 μl/min with a 6 minute contact time during […] immobilisation. Approximately 10000 resonance units were achieved on all channels.
# T1 sequence (peptide, as listed by the source): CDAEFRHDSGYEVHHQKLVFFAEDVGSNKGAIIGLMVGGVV
row,binding result,Binder
1,no binding,B5

# Target: T2, Aβ(1-40) monomer (Example 12A)
# T2 construct: Sigma peptide, HFIP treated, kept in DMSO
# Experiment: as above
# Method: as §2
row,binding result,Binder
1,no binding,B5

# Target: T1, Aβ(1-40 Cys) oligomer (Example 12A)
# Experiment: Biacore, antibody captured on anti-human Ig chip, cys-dimer peptide injected; legend: (-) indicates no binding
# Method: as §1, §2
row,binding result,Binder
1,no binding (tested: peptide 20-50 µg/ml),B1
2,no binding (tested: peptide 20-50 µg/ml),B2
3,no binding (tested: peptide 20-50 µg/ml),B3
4,no binding (tested: peptide 20-50 µg/ml),B4
5,no binding (tested: peptide 20-50 µg/ml),B6
6,no binding (tested: peptide 20-50 µg/ml),B7
7,no binding (tested: peptide 20-50 µg/ml),B9
8,no binding (tested: peptide 20-50 µg/ml),B10
9,no binding (tested: peptide 20-50 µg/ml),B11
